Reference: ChEMBL document CHEMBL2073860, “A third human carnitine/organic cation transporter (OCTN3) as a candidate for the 5q31 Crohn's disease locus (IBD5)” (Biochem Biophys Res Commun, 2003)

Substrate: C[N+](C)(C)CC(O)CC(=O)[O-]
Assay: TP_TRANSPORTER: uptake in Octn3-HepG2 cells
Type: functional, cell-based

B1: Solute carrier family 22 member 21 (Mus musculus), Q9WTN6 (protein)
chain: MLDYDEVTAFLGEWGTFQRLIFFLLSASIIPNGFTGLSAVFLTAIPEHRCRIPDTVNLSSAWRNHSIPMETKDGPEVPQKCRRYRLATIANFSELGLEPGRDVDLEQLEQENCLDGWEYDKDIFLSTIVTEWDLVCKDDWKAPLTTSFFYVGVLLGSFISGQLSDRFGRKNILFLTMAMHTGFSFIQVFSVNFEMFTLLYTLVGMGHISNYVAAFVLGTEMLSKSVRIIFATLGVCIFFAFGFMVLPLFAYFIREWRRLLLAITLPGVLCGALWWFIPESPRWLISQGRIKEAEVIIRKAAKINGIVAPSTIFDPSETNKLQDDSSKKPQSHHIYDLVRTPNIRILTIMSIILWLTISVGYFGLSLDTPNLNGNIYVNCFLLAAVEVPAYVLAWLLLQHVSRRYSMAGSLFLGGSVLLLVQLVPSDLHYLSTTLVMVGKFGITSAYSMVYVYTAELYPTVVRNMGVGVSSTASRLGSILSPYFVYLGAYDRRLPYILMGSLTILTAIITLFFPESSGVSLPETIDEMQKVKKLKQRQSLSKKGSPKESKGNVSRTSRTSEPKGF
In the case of B1, the Km is reported as 20 µM.
